This is an account of results in article PMC10907589, “CD8^+ T cell priming that is required for curative intratumorally anchored anti-4-1BB immunotherapy is constrained by Tregs” (Nature Communications, 2024).

The target of assay [1] is T1, murine 4-1BB (murine, UniProt P20334 24-256).
T1 chain: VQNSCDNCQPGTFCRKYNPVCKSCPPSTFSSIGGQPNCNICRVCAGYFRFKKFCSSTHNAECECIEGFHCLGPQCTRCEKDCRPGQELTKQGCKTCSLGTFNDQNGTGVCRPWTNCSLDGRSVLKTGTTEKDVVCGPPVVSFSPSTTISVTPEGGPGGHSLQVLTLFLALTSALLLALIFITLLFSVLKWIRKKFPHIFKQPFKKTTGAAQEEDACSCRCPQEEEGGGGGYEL
As to the kind of experiment: FACS.

Another assay deals with rat collagen I (rat, UniProt P02454 152-1207; P02466 86-1125). As to the kind of experiment: ELISA. On the technique in general: In an ELISA, binding on a coated surface is turned into a signal by an enzyme label.
The target of assay [2] is T2, murine 4-1BB (Mus musculus, UniProt P20334).
T2 construct: 4-1BB (CD137, TNFRSF9), murine; gene from OriGene cloned into pIRES2 (GFP downstream of an IRES site, not fused); also called CD137; TNFRSF9; source: FreeStyle 293-F, transiently transfected (pIRES2 vector), on cells
Put plainly: flow cytometry on cells; FreeStyle 293-F cells transiently transfected with murine 4-1BB, titrated with antibody for 3 h at 4 °C; detected with ɑmIgG1-APC. The note with it: one partner purified.

Chain of rat collagen I (P02454 152-1207, chain 1 of 2): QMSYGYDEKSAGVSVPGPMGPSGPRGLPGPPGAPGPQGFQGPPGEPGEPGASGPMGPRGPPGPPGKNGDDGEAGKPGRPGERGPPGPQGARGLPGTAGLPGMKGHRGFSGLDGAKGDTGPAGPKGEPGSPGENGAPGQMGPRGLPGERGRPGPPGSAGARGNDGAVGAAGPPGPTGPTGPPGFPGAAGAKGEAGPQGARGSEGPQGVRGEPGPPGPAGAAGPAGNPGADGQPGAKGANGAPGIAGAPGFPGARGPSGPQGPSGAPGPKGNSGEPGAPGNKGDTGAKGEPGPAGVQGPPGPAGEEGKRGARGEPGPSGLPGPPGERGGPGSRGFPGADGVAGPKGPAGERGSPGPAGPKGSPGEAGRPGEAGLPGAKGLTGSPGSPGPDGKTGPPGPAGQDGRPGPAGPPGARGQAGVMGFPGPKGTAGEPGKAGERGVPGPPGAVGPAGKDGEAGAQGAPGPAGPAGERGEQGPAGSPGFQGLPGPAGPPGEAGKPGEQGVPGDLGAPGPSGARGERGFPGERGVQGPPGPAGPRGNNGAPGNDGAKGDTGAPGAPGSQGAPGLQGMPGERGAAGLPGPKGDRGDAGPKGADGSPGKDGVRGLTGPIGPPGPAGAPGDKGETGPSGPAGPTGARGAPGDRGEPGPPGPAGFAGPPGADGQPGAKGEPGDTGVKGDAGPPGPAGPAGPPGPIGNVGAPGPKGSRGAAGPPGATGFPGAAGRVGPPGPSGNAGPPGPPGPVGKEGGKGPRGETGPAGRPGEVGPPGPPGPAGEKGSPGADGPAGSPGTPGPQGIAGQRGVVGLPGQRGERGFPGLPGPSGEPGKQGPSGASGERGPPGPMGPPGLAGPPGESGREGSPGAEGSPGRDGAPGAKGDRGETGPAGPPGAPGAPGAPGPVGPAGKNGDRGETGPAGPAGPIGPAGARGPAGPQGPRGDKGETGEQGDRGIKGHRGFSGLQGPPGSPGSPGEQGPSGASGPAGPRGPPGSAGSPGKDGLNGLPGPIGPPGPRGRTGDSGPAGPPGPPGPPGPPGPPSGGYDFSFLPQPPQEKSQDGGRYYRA
Chain of rat collagen I (P02466 86-1125, chain 2 of 2): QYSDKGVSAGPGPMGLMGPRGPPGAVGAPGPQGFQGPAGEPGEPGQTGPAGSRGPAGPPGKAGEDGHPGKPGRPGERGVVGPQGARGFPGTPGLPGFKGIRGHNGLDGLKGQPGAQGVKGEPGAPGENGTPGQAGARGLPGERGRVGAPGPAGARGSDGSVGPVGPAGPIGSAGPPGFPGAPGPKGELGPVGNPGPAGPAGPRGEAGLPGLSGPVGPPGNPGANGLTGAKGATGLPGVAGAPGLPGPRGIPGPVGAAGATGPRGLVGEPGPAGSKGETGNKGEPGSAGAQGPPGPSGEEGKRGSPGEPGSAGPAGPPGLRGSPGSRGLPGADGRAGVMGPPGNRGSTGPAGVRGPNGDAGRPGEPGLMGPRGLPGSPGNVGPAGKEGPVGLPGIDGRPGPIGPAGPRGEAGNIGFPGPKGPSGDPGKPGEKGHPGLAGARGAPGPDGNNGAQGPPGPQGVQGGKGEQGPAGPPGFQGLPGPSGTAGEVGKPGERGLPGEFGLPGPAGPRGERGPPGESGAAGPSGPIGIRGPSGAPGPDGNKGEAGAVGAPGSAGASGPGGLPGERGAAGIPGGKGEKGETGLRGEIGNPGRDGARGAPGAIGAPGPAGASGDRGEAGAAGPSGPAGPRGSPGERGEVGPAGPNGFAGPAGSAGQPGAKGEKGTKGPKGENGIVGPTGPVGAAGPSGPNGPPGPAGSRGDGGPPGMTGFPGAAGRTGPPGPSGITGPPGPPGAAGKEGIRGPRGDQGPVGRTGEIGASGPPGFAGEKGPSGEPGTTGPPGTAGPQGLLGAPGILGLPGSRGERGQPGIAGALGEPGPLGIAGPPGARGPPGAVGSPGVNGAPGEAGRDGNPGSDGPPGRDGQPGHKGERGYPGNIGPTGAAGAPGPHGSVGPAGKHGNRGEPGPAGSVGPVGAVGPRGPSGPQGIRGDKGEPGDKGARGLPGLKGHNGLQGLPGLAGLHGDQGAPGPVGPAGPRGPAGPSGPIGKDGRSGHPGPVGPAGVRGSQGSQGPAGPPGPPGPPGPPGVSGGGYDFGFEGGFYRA

B1: ɑ4-1BB-LAIR (ɑ4-1BB antibody clone LOB12.3 fused to the ectodomain of murine LAIR1) (antibody, V domains shown)
VH: DVQLVESGGGLVQPGRSLKLSCAASGFIFSYFDMAWVRQAPTKGLEWVASISPDGSIPYYRDSVKGRFTVSRENAKSSLYLQMDSLRSEDTATYYCARRSYGGYSEIDYWGQGVMVTVSS
VL: DIQMTQSPASLSASLEEIVTITCQASQDIGNWLAWYHQKPGKSPQLLIYGSTSLADGVPSRFSGSSSGSQYSLKISRLQVEDIGIYYCLQAYGAPWTFGGGTKLELK
notes: heavy chain variable region of ɑ4-1BB clone LOB12.3; murine IgG1 heavy chain constant region; flexible (G4S)3 linker, written out from the printed formula; Leukocyte Associated Immunoglobulin Like Receptor 1 (LAIR1), murine, ectodomain; light chain variable region of ɑ4-1BB clone LOB12.3; murine kappa light chain constant region; Chimeric murine IgG1/kappa antibody; LAIR1 is fused to the …
What is called Kd is the constant that tells how readily two partners part at equilibrium. B1: the Kd with murine 4-1BB [1] was 5.08 nM; with rat collagen I, 25 nM. In addition, in the assay with murine 4-1BB [2], the binding result is “binds”.

B2: ɑ4-1BB antibody (clone LOB12.3), murine IgG1 chimera (antibody, V domains shown)
VH: B1 VH
VL: B1 VL
notes: heavy chain variable region of ɑ4-1BB clone LOB12.3, as in the heavy chain of m1; murine IgG1 heavy chain constant region; light chain variable region of ɑ4-1BB clone LOB12.3, as the light chain of m1; murine kappa light chain constant region; Chimeric murine IgG1/kappa antibody; light and heavy chain encoded in one cassette with a T2A peptide between them; also called α4-1BB; a4-1BB; source: …
In the case of B2, in the assay with murine 4-1BB [1], the Kd came to 4.12 nM. In the assay with murine 4-1BB [2], the binding result is “binds”.
